Assay results published in patent US20060057652A1.

Biological target: anaphase promoting complex subunit 1 (APC1) (Homo sapiens) (UniProt Q9H1A4)
Experiment: cell-based or functional assay

anaphase promoting complex subunit 1 (APC1) (Homo sapiens), sequence (Q9H1A4 whole entry, one chain of several): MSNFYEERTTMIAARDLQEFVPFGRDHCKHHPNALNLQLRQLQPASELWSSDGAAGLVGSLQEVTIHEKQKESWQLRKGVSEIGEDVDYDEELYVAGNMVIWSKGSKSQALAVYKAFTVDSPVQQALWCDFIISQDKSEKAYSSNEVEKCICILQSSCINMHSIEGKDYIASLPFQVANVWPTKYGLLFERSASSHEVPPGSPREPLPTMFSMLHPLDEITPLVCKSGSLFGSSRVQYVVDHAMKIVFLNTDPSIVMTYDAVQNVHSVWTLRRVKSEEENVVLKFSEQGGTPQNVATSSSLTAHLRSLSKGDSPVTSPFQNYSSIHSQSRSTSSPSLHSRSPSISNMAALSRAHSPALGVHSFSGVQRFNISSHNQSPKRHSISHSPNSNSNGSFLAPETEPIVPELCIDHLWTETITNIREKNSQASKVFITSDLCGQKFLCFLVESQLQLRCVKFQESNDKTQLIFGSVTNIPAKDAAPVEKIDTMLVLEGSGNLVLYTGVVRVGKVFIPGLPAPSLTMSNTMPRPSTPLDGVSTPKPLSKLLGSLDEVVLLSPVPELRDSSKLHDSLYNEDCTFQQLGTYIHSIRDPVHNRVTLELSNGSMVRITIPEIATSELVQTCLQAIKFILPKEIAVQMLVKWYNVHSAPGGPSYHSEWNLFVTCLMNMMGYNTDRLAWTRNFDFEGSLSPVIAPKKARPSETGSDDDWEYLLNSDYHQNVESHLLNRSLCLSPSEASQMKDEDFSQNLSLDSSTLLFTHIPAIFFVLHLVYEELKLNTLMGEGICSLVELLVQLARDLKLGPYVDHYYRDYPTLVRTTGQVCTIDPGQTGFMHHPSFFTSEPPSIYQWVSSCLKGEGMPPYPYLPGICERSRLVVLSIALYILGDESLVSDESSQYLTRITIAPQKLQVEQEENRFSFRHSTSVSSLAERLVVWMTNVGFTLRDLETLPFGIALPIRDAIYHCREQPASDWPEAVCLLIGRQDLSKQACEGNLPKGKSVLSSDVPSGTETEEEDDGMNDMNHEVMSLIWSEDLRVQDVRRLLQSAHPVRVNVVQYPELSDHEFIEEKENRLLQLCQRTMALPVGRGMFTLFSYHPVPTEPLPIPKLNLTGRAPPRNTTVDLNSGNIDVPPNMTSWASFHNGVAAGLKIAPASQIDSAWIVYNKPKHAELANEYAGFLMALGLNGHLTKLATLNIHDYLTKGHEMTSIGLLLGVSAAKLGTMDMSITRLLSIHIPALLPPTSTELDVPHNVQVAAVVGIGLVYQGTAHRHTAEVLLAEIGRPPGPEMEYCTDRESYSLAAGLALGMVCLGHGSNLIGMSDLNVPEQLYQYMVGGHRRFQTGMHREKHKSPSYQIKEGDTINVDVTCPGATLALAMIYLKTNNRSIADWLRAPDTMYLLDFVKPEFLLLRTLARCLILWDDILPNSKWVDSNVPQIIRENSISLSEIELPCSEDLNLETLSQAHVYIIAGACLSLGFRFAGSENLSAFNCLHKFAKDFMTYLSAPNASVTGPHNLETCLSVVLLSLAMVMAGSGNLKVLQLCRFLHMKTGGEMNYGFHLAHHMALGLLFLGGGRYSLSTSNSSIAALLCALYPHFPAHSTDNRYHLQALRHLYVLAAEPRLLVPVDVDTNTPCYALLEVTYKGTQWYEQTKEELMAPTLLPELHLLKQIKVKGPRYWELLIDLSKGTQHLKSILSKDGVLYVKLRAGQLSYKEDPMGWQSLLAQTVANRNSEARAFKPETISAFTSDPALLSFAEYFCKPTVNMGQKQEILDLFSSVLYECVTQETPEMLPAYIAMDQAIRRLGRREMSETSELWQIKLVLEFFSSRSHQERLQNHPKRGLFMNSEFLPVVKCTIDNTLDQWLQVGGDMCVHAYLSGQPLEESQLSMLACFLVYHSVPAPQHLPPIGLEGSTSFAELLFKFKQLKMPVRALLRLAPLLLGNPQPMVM

Substance	percent of wild-type killing activity (apoptotic morphology, H1299 cells) (percent of wild-type killing activity)
GFP-Ap(42-121) (from UniProt Q99152 42-121)	67
GFP-Ap(82-121) (from UniProt Q99152 82-121)	55
